B1: FIXa-K293E/R338E/R403E (mature FIX numbering) (protein)
chain 1: not shown
chain 2: not shown
B2: FIXa-K228N/K247N/N249S/R318Y/R338E/T343R/R403E (protein)
chain 1: not shown
chain 2: not shown
B3: FIXa-R338E/R403E/E410N (mature FIX numbering) (protein)
chain 1: not shown
chain 2: not shown
B4: FIXa-K228N/247N/N249S/R318Y/R338E/T343R/E410N (protein)
chain 1: not shown
chain 2: not shown
B5: FIXa-R318Y/R338E/T412A (protein)
chain 1: not shown
chain 2: not shown
B6: FIXa-R318Y/R338E/R403E/T412A (protein)
chain 1: not shown
chain 2: not shown
B7: FIXa-K228N/K247N/N249S/R318Y/T343R/R403E/E410N (protein)
chain 1: not shown
chain 2: not shown
B8: FIXa-K228N/R318Y/R338E/T343R/R403E/E410N (protein)
chain 1: not shown
chain 2: not shown
B9: FIXa-K293A/R338A/R403A (mature FIX numbering) (protein)
chain 1: not shown
chain 2: not shown
B10: FIXa-N260S/R318Y/R338E/R403E/E410N (protein)
chain 1: not shown
chain 2: not shown
B11: FIXa-K247N/N249S/R318Y/R403E/E410N (protein)
chain 1: not shown
chain 2: not shown
B12: FIXa-R318Y/T343R/E410N (protein)
chain 1: not shown
chain 2: not shown
B13: FIXa-Y155F/K247N/N249S/R318Y/R403E/E410N (protein)
chain 1: not shown
chain 2: not shown
B14: FIXa-Y155F/R318Y/T343R/E410N (protein)
chain 1: not shown
chain 2: not shown

target: Factor X (FX), P00742
Sequence (P00742 whole entry, looked up): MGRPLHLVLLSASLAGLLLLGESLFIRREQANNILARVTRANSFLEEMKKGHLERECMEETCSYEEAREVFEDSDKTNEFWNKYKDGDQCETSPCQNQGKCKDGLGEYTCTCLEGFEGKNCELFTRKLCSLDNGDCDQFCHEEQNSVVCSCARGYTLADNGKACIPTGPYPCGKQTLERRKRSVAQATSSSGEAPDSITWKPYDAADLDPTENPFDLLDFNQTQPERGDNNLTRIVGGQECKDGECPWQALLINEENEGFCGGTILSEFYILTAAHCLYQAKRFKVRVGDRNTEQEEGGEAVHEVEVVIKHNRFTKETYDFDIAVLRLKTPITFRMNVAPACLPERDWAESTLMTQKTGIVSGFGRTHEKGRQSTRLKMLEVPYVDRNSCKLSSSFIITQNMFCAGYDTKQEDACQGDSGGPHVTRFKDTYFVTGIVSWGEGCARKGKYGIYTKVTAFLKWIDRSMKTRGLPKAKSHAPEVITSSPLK

Protein	% of WT kcat/KM [%]	KM (nM), FX activation by FIXa in the Xase complex (FVIIIa, PC/PS vesicles, Ca2+), indirect fluorogenic assay with Spectrafluor FXa [nM]	% of WT kcat/KM (against Catalyst Biosciences WT FIXa), FX activation in the Xase complex [%]	KM [µM]	kcat/KM for FX activation by FIXa in the Xase complex (FVIIIa, PC/PS vesicles, Ca2+), indirect fluorogenic Spectrafluor FXa assay [M⁻¹ s⁻¹]
B1	36				
B2		44.4			
B3	411				
B4		38.1			
B5			661	0.0235	3e+08
B6				0.0675	
B7		125			
B8		40.3			
B9	53				
B10			117	0.0724	5.3e+07
B11				0.111	
B12		52.3			
B13				0.125	
B14		40.3			
